Data: patent publication US8173397B2, “Folded recombinant catalytic fragments of multidomain serine proteases, preparation and uses thereof” (TargetEx Kft., priority 2002, dated 2012)

Key:
Format in all cases: biochemical
[1] = target: T1, live C3 (Homo sapiens, UniProt P01024); test: Cleavage of live C3 by MASP fragments, SDS-PAGE densitometry; conditions: from kcat/KM values
T1 construct: was isolated from fresh human serum; from tissue; host or cells: fresh human serum
Method: C2, C3, C3(NH3), C4 cleavage—Serial dilutions of MASP-1 and MASP-2 fragments ranging between concentrations of 1 μM and 10 pM were incubated at 37° C. in 20 mM HEPES, 140 mM NaCl, pH 7.4 with C2, C3, C3(NH3) or C4 at typical concentrations of 0.5-1 μM. The cleavage was followed by SDS-PAGE under reducing conditions. Desirable concentrations of the MASP fragments for further detailed kinetic analysis were chosen to be where half of the protein substrates were hydrolyzed during the first 20 minutes of incubation. The protein substrates C2, C3, C3(NH3) or C4 were then incubated with the selected concentrations of the MASP fragments at 37° C. in 20 mM HEPES, 140 mM NaCl, pH 7.4. Typically 11-13 samples were taken at varying time periods but always within 50 minutes from the beginning of the reaction. Cleavages rates were quantified by measuring the diminution of the cleaved chain visualized by Coomassie stained SDS-PAGs using a GEL DOC 1000 instrument and Molecular Analyst Software for densitometric calculations (Bio-Rad, Hercules, Calif., USA). The reactions were assumed to be of the Michaelis-Menten type. In the case of C3 and C3(NH3) cleavage a further reasonable assumption of KM>>[substrate] was made. […]

[2] = target: T2, C1-inhibitor (Homo sapiens, UniProt P05155); test: Rate of SDS stable complex formation of 125I-labelled MASP fragments with C1-inhibitor
T2 construct: Purification of C1-inh and Alpha-2-Macroglobulin; from tissue
T2 sequence (P05155 23-500): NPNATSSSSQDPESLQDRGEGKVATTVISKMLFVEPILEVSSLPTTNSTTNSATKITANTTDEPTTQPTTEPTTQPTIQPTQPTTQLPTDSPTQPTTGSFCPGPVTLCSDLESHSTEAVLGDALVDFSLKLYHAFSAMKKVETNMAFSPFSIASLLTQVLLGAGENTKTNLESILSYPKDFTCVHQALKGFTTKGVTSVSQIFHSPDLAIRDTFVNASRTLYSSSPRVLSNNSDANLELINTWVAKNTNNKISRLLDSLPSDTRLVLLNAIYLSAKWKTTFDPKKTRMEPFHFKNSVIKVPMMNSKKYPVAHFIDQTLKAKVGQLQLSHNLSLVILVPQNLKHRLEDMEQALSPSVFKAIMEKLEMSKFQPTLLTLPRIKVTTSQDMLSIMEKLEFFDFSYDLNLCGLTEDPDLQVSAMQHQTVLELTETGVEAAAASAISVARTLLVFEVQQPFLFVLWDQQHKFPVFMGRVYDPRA
Method: To assess the rate of SDS stable complex formation between the MASP-1 and MASP-2 CCP1-CCP2-SP fragments and C1-inhibitor, the ^125I-labelled MASP fragments at concentrations ranging between 30-100 nM were incubated with 100-350 nM C1-inhibitor at 37° C. in 20 mM HEPES, 140 mM NaCl, pH 7.4 for 40 minutes. Typically 11-13 samples were taken at varying time periods. The reactions were stopped by reducing sample buffer containing 0.125 M Tris, 4.8% SDS, 8 M urea 20% glycerol, 720 mM mercaptoethanol, 0.02% bromophenol blue, pH6.8. The samples were further incubated at 37° C. for 30 minutes and run on reducing SDS-PAGE. Cleavages rates were visualized by means of autoradiography and the diminution of the reacted MASP chain was quantified using a GEL DOC 1000 instrument and Molecular Analyst Software for densitometric calculations (Bio-Rad, Hercules, Calif., USA). The kinetic constants were calculated assuming irreversible inhibition proceeded by reversible enzyme-inhibitor complex formation. Using steady-state approximation and neglecting the starting enzyme concentration compared to the starting inhibitor concentration ([I0]>>[E0]) the data was regressed on the following equation using non-linear regression methods: [E]=[E0]exp(−kobst); kobs=k2[I0]/(Ki+[I0]), where kobs is the observed pseudo-first order rate of reaction, k2 is the rate of irreversible enzyme-inhibitor complex formation and Ki is the inhibitory constant.

[3] = system: P1 Arg oligopeptide; test: Competing oligopeptide substrate library; conditions: same conditions
Method: The specificities of the MASP-1 and MASP-2 CCP1-CCP2-SP fragments were tested on a competing oligopeptide library applying the method described before (Antal, 2001).
To further investigate the range of substrate specificity and relative specific activities of MASP-1 and MASP-2 we applied a competing oligopeptide substrate library. (Antal, 2001). This library contains a mixture of seven oligopeptides (each 13 amino acids in length) with different cleavage sites (P1) for both trypsin and chymotrypsin-like enzymes (His-Ala-Ala-Pro-Xxx-Ser-Ala-Asp-Ile-Gln-Ile-Asp-Ile, SEQ ID NO:18, where Xxx could be Lys, Arg, Tyr, Leu, Phe, Trp or Pro). The individual peptide substrates compete for the protease under investigation, in our cases for either the MASP-1 CCP1-CCP2-SP or the MASP-2 CCP1-CCP2-SP fragment. […] The MASP-1 catalytic fragment (CCP1-CCP2-SP) exerted a substantially larger activity on the Arg oligopeptide substrate than the MASP-2 fragment (FIG. 7). […] MASP-2 also preferred the Arg substrate to the Lys one, but the degree of preference was much less than that of MASP-1. A very similar specificity profile was obtained for trypsin in this oligopeptide library system.

T1 sequence (P01024 672-1663 limits assumed): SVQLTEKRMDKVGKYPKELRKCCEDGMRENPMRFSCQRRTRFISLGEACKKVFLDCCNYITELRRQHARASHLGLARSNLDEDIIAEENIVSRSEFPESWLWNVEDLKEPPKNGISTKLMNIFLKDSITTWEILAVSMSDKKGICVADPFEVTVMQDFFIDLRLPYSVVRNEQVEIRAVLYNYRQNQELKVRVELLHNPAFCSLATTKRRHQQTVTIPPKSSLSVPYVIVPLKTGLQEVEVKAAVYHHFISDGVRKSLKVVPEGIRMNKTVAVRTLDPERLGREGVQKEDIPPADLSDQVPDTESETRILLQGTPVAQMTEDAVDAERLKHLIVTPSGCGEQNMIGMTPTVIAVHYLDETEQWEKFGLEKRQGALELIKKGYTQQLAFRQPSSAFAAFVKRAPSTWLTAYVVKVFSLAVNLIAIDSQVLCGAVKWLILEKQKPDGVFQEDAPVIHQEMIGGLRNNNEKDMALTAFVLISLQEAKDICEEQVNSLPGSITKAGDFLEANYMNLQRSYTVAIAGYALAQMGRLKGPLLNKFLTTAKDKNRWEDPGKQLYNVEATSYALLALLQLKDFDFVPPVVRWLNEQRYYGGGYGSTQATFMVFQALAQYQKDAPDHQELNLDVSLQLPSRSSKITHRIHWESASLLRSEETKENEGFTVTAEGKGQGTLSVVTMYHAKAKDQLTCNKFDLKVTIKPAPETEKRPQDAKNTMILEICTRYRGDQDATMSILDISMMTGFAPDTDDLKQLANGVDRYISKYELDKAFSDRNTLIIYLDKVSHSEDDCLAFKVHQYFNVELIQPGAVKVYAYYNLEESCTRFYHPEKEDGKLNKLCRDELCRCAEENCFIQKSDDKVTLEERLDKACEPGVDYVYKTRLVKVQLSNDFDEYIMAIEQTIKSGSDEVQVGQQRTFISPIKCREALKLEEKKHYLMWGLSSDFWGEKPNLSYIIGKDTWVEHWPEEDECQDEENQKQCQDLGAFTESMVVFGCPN
T1 sequence (P01024 23-667 partner limits assumed): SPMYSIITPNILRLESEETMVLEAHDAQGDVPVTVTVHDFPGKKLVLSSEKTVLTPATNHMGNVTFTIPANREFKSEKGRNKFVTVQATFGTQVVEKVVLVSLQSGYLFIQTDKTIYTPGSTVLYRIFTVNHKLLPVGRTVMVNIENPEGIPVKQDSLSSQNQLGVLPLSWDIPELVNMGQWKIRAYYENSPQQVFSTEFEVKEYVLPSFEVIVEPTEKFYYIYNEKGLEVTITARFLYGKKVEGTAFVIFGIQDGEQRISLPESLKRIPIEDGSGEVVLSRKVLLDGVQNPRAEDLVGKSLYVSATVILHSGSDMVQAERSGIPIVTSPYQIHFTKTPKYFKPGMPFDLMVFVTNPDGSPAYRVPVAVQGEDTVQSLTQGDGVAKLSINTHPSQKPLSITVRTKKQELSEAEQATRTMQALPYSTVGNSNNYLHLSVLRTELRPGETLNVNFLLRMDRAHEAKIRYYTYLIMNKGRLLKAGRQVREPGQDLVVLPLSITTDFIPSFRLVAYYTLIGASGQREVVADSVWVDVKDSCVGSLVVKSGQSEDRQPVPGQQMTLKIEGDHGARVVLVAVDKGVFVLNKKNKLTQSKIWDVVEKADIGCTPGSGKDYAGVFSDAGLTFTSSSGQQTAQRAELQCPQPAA

B1: MASP-1γB: E. coli-expressed, refolded human MASP-1 CCP1-CCP2-SP fragment, Gly298 to Asn699 with N-terminal Ala-Ser-Met-Thr tag (protein)
chain 1: ASMTGNECPELQPPVHGKIEPSQAKYFFKDQVLVSCDTGYKVLKDNVEMDTFQIECLKDGTWSNKIPTCKIVDCRAPGELEHGLITFSTRNNLTTYKSEIKYSCQEPYYKMLNNNTGIYTCSAQGVWMNKVLGRSLPTCLPVCGLPKFSRKLMAR
chain 2: IFNGRPAQKGTTPWIAMLSHLNGQPFCGGSLLGSSWIVTAAHCLHQSLDPEDPTLRDSDLLSPSDFKIILGKHWRLRSDENEQHLGVKHTTLHPQYDPNTFENDVALVELLESPVLNAFVMPICLPEGPQQEGAMVIVSGWGKQFLQRFPETLMEIEIPIVDHSTCQKAYAPLKKKVTRDMICAGEKEGGKDACAGDSGGPMVTLNRERGQWYLVGTVSWGDDCGKKDRYGVYSYIHHNKDWIQRVTGVRN
proteolytic action on 'live' C3 relative to 'dead' C3 (fold less) [1]: about 20 fold | kobs with C1-inhibitor, fold less than for the MASP-2 CCP1-CCP2-SP fragment [2]: 5 fold | kobs, pseudo-first order rate of reaction with C1-inh ([2]; [C1-inh] = 350 nM, 37° C., pH 7.4): 0.0014 s⁻¹ | efficiency of digestion of the P1 Arg peptide relative to the corresponding fragment of MASP-2 [3]: 4-5 fold
